Substrate: C=C(OP(=O)(O)O)C(=O)O
Assay: In vitro kinetic assay (inorganic phosphate production, malachite green)
Type: biochemical, Brassica napus
Conditions: other: pH 7.5, 1 mM S3P
Source text: (§1) The following Class I enzymes: DGT-1 from Glycine max, DGT-3 from Brassica napus (GENBANK ACC NO: P17688), and DGT-7 from Triticum aestivum (GENBANK ACC NO: EU977181) were used as a comparison. The Class I EPSP synthase enzymes and mutant variants thereof were synthesized and evaluated. A mutation introduced into the plant EPSP synthase enzymes consisted of the Glycine to Alanine mutation made within the EPSP synthase enzyme at a similar location as that of the G96A mutation from the E. coli version of the enzyme. In addition, Threonine to Isoleucine and Proline to Serine mutations were introduced within these Class I EPSP synthase enzymes at analogous positions as that of amino acid 97 (T to I) and amino acid 101 (P to S) in the EPSP synthase of E. coli as described in Funke et al., (2009).
(§2) The location of the amino acid residue which was mutated from glycine to alanine is indicated by the first asterisk. The location of the amino acid residue which was mutated from threonine to isoleucine is indicated by the second asterisk. The location of the third amino acid residue which was mutated from proline to serine is indicated by the third asterisk. These mutations were introduced into different versions of DGT-1, DGT-3, and DGT-7. The different versions of the genes which contain the mutations are described in more detail below.
(§3) Additional constructs containing the dgt-1, dgt-3 and dgt-7 were synthesized. These constructs were used for in vitro testing of the dgt-1 v5, dgt-1 v6, dgt-1 v7, dgt-1 v8, dgt-3 v6, dgt-3 v7, dgt-3 v8, dgt-7 v5, dgt-7 v6, dgt-7 v7, and dgt-7 v8 gene sequences were outsourced to GeneArt for synthesis and cloning. The synthesized genes were cloned into the pET28 expression vector. The resulting constructions were labeled as pDAB102028 containing dgt-1 v5, pDAB102029 containing dgt-1 v6, pDAB102032 containing dgt-1 v7, pDAB102034 containing dgt-1 v8, pDAB100429 containing dgt-3 v6, pDAB100442 containing dgt-3 v7, pDAB100430 containing dgt-3 v8, pDAB102036 containing dgt-7 v5, pDAB102038 containing dgt-7 v6, pDAB102040 containing dgt-7 v7, and pDAB102042 containing dgt-7 v8.
(§4) Recombinant DGT proteins were overexpressed in Rosetta2™ (DE3) cells (Novagen, Madison, Wis.) from the constructs described above. A single colony was used to inoculate 50 mL starter cultures of LB containing chloramphenicol (25 μg/mL) and kanamycin (50 μg/mL) which were cultivated overnight at 37° C. The overnight cultures were used to inoculate 1 L of LB containing chloramphenicol (25 μg/mL) and kanamycin (50 μg/mL). The cultures were grown at 37° C. to an O.D.600=0.6 then placed in an ice water bath for 10 minutes. Expression of the target proteins was achieved by addition of IPTG to a final concentration of 500 μM. Induction was allowed to proceed overnight at 20° C. followed by harvesting via centrifugation at 8,000 rpm for 20 minutes. The cell pellets were stored at −80° C. until required for purification. All purification steps were carried out at 4° C.
(§5) Cell pellets from 1 L cultures were resuspended in 20-30 mL Buffer A (50 mM HEPES pH 7.5, 150 mM KCl, 2 mM DTT, 1 mM EDTA, 20 mM imidazole, and 5% glycerol). COMPLETE™ protease inhibitor cocktail (1 tablet/50 mL, Roche, Indianapolis, Ind.) and lysozyme (1 mg/mL, Sigma-Aldrich, St. Louis, Mo.) were then added and the suspension was stirred for 20 minutes. Cell lysis was performed using a Branson Sonifier 250 (3×60 second bursts) followed by removal of the cell debris by centrifugation at 16,000 rpm for 45 minutes. […]

Molecule | Km [µM] | kcat/Km [M⁻¹ s⁻¹]
Brassica napus (canola) EPSP synthase DGT-3 (GENBANK P17688) variant DGT-3 v6 (G→A) (Brassica napus; G173A) (protein, made in house; host or cells: E. coli Rosetta2 (DE3)) KASEIVLQPIREISGLIKLPGSKSLSNRILLLAALSEGTTVVDNLLNSDDINYMLDALKKLGLNVERDSVNNRAVVEGCGGIFPASLDSKSDIELYLGNAATAMRPLTAAVTAAGGNASYVLDGVPRMRERPIGDLVVGLKQLGADVECTLGTNCPPVRVNANGGLPGGKVKLSGSISSQYLTALLMAAPLALGDVEIEIIDKLISVPYVEMTLKLMERFGVSAEHSDSWDRFFVKGGQKYKSPGNAYVEGDASSASYFLAGAAITGETVTVEGCGTTSLQGDVKFAEVLEKMGCKVSWTENSVTVTGPSRDAFGMRHLRAVDVNMNKMPDVAMTLAVVALFADGPTTIRDVASWRVKETERMIAICTELRKLGATVEEGSDYCVITPPAKVKPAEIDTYDDHRMAMAFSLAACADVPVTIKDPGCTRKTFPDYFQVLESITKH | 1073.4 | 13900
Brassica napus (canola) EPSP synthase DGT-3 (GENBANK P17688) variant DGT-3 v8 (T→I, P→S; TIPS) (Brassica napus; P178S/T174I) (protein, made in house; host or cells: E. coli Rosetta2 (DE3)) KASEIVLQPIREISGLIKLPGSKSLSNRILLLAALSEGTTVVDNLLNSDDINYMLDALKKLGLNVERDSVNNRAVVEGCGGIFPASLDSKSDIELYLGNAGIAMRSLTAAVTAAGGNASYVLDGVPRMRERPIGDLVVGLKQLGADVECTLGTNCPPVRVNANGGLPGGKVKLSGSISSQYLTALLMAAPLALGDVEIEIIDKLISVPYVEMTLKLMERFGVSAEHSDSWDRFFVKGGQKYKSPGNAYVEGDASSASYFLAGAAITGETVTVEGCGTTSLQGDVKFAEVLEKMGCKVSWTENSVTVTGPSRDAFGMRHLRAVDVNMNKMPDVAMTLAVVALFADGPTTIRDVASWRVKETERMIAICTELRKLGATVEEGSDYCVITPPAKVKPAEIDTYDDHRMAMAFSLAACADVPVTIKDPGCTRKTFPDYFQVLESITKH | 196.8 | –
Brassica napus (canola) EPSP synthase DGT-3 (GENBANK P17688) variant DGT-3 v7 (G→A, P→S; GAPS) (Brassica napus; G173A/P178S) (protein, made in house; host or cells: E. coli Rosetta2 (DE3)) KASEIVLQPIREISGLIKLPGSKSLSNRILLLAALSEGTTVVDNLLNSDDINYMLDALKKLGLNVERDSVNNRAVVEGCGGIFPASLDSKSDIELYLGNAATAMRSLTAAVTAAGGNASYVLDGVPRMRERPIGDLVVGLKQLGADVECTLGTNCPPVRVNANGGLPGGKVKLSGSISSQYLTALLMAAPLALGDVEIEIIDKLISVPYVEMTLKLMERFGVSAEHSDSWDRFFVKGGQKYKSPGNAYVEGDASSASYFLAGAAITGETVTVEGCGTTSLQGDVKFAEVLEKMGCKVSWTENSVTVTGPSRDAFGMRHLRAVDVNMNKMPDVAMTLAVVALFADGPTTIRDVASWRVKETERMIAICTELRKLGATVEEGSDYCVITPPAKVKPAEIDTYDDHRMAMAFSLAACADVPVTIKDPGCTRKTFPDYFQVLESITKH | 2728.3 | 2280

Substrate: C=C(OP(=O)(O)O)C(=O)O
Assay: as above
Type: biochemical, Glycine max
Conditions: other: pH 7.5, 1 mM S3P
Remark: another data set of the same source
Source text: as §1, §2, §3, §4, §5

Molecule | Km [µM] | kcat/Km [M⁻¹ s⁻¹]
Glycine max (soybean) EPSP synthase DGT-1 variant DGT-1 v6 (G→A) (Glycine max; G182A) (protein) MASVAAAEKPSTSPEIVLEPIKDFSGTITLPGSKSLSNRILLLAALSEGTTVVDNLLYSEDIHYMLGALRTLGLRVEDDKTTKQAIVEGCGGLFPTSKESKDEINLFLGNAATAMRPLTAAVVAAGGNASYVLDGVPRMRERPIGDLVAGLKQLGADVDCFLGTNCPPVRVNGKGGLPGGKVKLSGSVSSQYLTALLMAAPLALGDVEIEIVDKLISVPYVEMTLKLMERFGVSVEHSGNWDRFLVHGGQKYKSPGNAFVEGDASSASYLLAGAAITGGTITVNGCGTSSLQGDVKFAEVLEKMGAKVTWSENSVTVSGPPRDFSGRKVLRGIDVNMNKMPDVAMTLAVVALFANGPTAIRDVASWRVKETERMIAICTELRKLGATVEEGPDYCVITPPEKLNVTAIDTYDDHRMAMAFSLAACGDVPVTIKDPGCTRKTFPDYFEVLERLTKH | 608.2 | 13400
Glycine max (soybean) EPSP synthase DGT-1 variant DGT-1 v7 (G→A, P→S; GAPS) (Glycine max; G182A/P187S) (protein) MASVAAAEKPSTSPEIVLEPIKDFSGTITLPGSKSLSNRILLLAALSEGTTVVDNLLYSEDIHYMLGALRTLGLRVEDDKTTKQAIVEGCGGLFPTSKESKDEINLFLGNAATAMRSLTAAVVAAGGNASYVLDGVPRMRERPIGDLVAGLKQLGADVDCFLGTNCPPVRVNGKGGLPGGKVKLSGSVSSQYLTALLMAAPLALGDVEIEIVDKLISVPYVEMTLKLMERFGVSVEHSGNWDRFLVHGGQKYKSPGNAFVEGDASSASYLLAGAAITGGTITVNGCGTSSLQGDVKFAEVLEKMGAKVTWSENSVTVSGPPRDFSGRKVLRGIDVNMNKMPDVAMTLAVVALFANGPTAIRDVASWRVKETERMIAICTELRKLGATVEEGPDYCVITPPEKLNVTAIDTYDDHRMAMAFSLAACGDVPVTIKDPGCTRKTFPDYFEVLERLTKH | 1291.2 | 6670
Glycine max (soybean) EPSP synthase DGT-1 variant DGT-1 v8 (T→I, P→S; TIPS) (Glycine max; P187S/T183I) (protein) MASVAAAEKPSTSPEIVLEPIKDFSGTITLPGSKSLSNRILLLAALSEGTTVVDNLLYSEDIHYMLGALRTLGLRVEDDKTTKQAIVEGCGGLFPTSKESKDEINLFLGNAGIAMRSLTAAVVAAGGNASYVLDGVPRMRERPIGDLVAGLKQLGADVDCFLGTNCPPVRVNGKGGLPGGKVKLSGSVSSQYLTALLMAAPLALGDVEIEIVDKLISVPYVEMTLKLMERFGVSVEHSGNWDRFLVHGGQKYKSPGNAFVEGDASSASYLLAGAAITGGTITVNGCGTSSLQGDVKFAEVLEKMGAKVTWSENSVTVSGPPRDFSGRKVLRGIDVNMNKMPDVAMTLAVVALFANGPTAIRDVASWRVKETERMIAICTELRKLGATVEEGPDYCVITPPEKLNVTAIDTYDDHRMAMAFSLAACGDVPVTIKDPGCTRKTFPDYFEVLERLTKH | 151.4 | –

System: C=C(OP(=O)(O)O)C(=O)O
Assay: purified protein, by the assay type
Conditions: other: pH 7.5, 1 mM S3P

Molecule | Km [µM] | kcat/Km [M⁻¹ s⁻¹]
bacterial EPSP synthase DGT-18 (GENBANK NP_928909.1) variant DGT-18 v6 (G→A at residue 96), SEQ ID NO:9 (Photorhabdus laumondii subsp. laumondii TTO1; G96A) | 375.9 | 40000
bacterial EPSP synthase DGT-29 (GENBANK YP_322772.1) variant DGT-29 v6 (G→A at residue 96), SEQ ID NO:11 (Trichormus variabilis ATCC 29413; G96A) | 1502.2 | 4000
Mariprofundus ferrooxydans EPSP synthase DGT-14 v1, native wild type (GENBANK ZP_01452683; SEQ ID NO:17) (Mariprofundus ferrooxydans PV-1) | 208.6 | –
bacterial EPSP synthase DGT-11 v6, native (GENBANK YP_989551.1), SEQ ID NO:5 (Bartonella bacilliformis INS) | 1576.6 | 50
bacterial EPSP synthase DGT-30 (GENBANK ZP_02156189.1) variant DGT-30 v6 (G→A at residue 96), SEQ ID NO:13 (Shewanella benthica KT99; G96A) | 414.9 | 30000

From patent US9873883B2, “Glyphosate resistant plants and associated methods” (Dow AgroSciences LLC, priority 2012, dated 2018)
